PMC8659110, “Preliminary Study of New Gallium-68 Radiolabeled Peptide Targeting NRP-1 to Detect Brain Metastases by Positron Emission Tomography” (Molecules, 2021)
Primed or numbered codes have the meaning given here. Where no end group is shown, it is not given here. Cy5 = Cy5 fluorophore (fluorescent dye); NODAGA′ = chelator

T1: recombinant rat NRP-1 protein (rat, UniProt Q9QWJ9 22-855)
T1 construct: neuropilin-1 (NRP-1), rat, recombinant; printed MW 119 kDa; also called neuropilin-1; source: bought: Bio-techne
T1 sequence (looked up): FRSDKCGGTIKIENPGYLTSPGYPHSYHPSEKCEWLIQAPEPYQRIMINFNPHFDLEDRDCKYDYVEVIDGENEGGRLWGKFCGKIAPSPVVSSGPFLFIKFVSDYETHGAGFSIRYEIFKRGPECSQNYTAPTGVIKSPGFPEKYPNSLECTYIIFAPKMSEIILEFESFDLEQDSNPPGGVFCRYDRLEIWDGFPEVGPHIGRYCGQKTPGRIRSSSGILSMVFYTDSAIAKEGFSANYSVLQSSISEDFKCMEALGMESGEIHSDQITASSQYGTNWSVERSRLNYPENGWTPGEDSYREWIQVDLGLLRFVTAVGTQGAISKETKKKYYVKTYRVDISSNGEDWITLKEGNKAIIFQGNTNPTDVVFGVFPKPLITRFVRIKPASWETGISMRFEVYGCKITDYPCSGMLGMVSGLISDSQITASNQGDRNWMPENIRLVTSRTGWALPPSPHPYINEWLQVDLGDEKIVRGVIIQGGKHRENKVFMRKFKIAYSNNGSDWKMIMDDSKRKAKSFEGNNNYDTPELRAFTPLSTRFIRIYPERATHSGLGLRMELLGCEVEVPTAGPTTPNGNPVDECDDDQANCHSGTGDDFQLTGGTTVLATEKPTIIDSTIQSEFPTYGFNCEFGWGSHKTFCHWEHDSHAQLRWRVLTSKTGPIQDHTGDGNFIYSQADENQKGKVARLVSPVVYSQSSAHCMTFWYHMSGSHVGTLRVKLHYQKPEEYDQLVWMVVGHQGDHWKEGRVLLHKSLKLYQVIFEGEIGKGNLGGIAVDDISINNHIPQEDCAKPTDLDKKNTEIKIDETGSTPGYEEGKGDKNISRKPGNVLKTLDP

T2: NRP-1 recombinant chimeric protein ( (recombinant human/rat NRP-1 …, UniProt O14786 22-856))
T2 construct: 'Chimeric' probably means the supplier's Fc chimera; also called recombinant NRP-1 protein; the receptor; source: bought: Bio-techne
T2 sequence (looked up): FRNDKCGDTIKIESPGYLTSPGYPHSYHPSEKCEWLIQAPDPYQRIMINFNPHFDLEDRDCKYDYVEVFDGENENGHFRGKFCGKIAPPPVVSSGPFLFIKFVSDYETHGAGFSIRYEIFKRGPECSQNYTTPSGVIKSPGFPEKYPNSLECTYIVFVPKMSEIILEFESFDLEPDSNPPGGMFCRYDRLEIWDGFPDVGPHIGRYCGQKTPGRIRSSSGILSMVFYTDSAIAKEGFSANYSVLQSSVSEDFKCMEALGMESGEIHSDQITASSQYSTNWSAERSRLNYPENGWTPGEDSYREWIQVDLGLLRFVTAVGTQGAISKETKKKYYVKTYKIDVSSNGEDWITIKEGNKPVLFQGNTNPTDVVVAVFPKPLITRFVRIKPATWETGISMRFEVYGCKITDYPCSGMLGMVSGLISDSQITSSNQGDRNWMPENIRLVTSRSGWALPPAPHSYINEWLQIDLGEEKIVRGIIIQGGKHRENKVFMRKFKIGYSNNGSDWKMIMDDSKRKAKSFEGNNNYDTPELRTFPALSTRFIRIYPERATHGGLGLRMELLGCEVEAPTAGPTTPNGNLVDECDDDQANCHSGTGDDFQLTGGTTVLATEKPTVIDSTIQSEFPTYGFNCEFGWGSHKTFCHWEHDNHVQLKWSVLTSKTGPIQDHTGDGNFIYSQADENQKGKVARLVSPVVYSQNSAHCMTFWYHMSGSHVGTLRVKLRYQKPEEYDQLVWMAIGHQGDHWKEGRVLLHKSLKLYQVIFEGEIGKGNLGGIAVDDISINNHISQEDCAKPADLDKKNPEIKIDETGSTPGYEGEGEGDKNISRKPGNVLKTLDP


How the values were obtained:
[1] = target: T1, recombinant rat NRP-1 protein; assay: SPR; Biacore T200, 25 °C; rat NRP-1 covalently immobilised on CM5 chip (10,000 RU), IgG1 reference surface (4000 RU); PBS with 0.05% P20, pH 7.4; compounds 0.60-10 µM (scrambled peptides 10 and 30 µM, VEGF 12.5-400 nM) at 30 µL/min for 300 s; equilibrium response fitted to a 1:1 model; mean of two experiments; conditions: both partners purified
[2] = target: T2, NRP-1 recombinant chimeric protein; assay: ELISA; competitive binding assay: NRP-1 recombinant chimeric protein coated on Maxisorp microplates; biotinylated VEGF-165 with heparin, with or without increasing concentrations of compounds; 2 h at room temperature; bound b-VEGF-165 detected with streptavidin-HRP, OD 450 nm; IC50 by one-site fit log-IC50; conditions: both partners purified

Row | Binder | Kd [1] | IC50 [2]
1 | {NODAGA′}-K(Cy5)DKPPR (also: NODAGA complexed with natGa, KDKPPR with ^natGa-NODAGA on the N-terminal amine and Cy5 on the side chain of the first lysine; source: synthetic peptide (Fmoc/tBu/Dde solid phase; complexed with ^natGa(NO3)3, purified by preparative HPLC)) [^natGa-NODAGA-K(Cy5)DKPPR] | 4 µM | –
2 | H-KRPKPD-OH [KRPKPD scramble peptide] | – | 300 µM
3 | {NODAGA′}-K(Cy5)RPKPD (also: NODAGA complexed with natGa, scramble peptide KRPKPD with ^natGa-NODAGA on the N-terminal amine and Cy5 on the side chain of the first lysine; also called ^natGa-NODAGA-K(Cy5)scramble; source: synthetic peptide (Fmoc/tBu/Dde solid phase; complexed with ^natGa, purified by preparative HPLC)) [^natGa-NODAGA-K(Cy5)RPKPD] | – | 177 µM
4 | KDKPPR (also called KDKPPR free peptide; KDKPPR alone; source: synthetic peptide (Fmoc/tBu solid phase on Fmoc-Arg(Pbf)-Wang resin, precipitated in cold diethyl ether)) [KDKPPR peptide] | 7 µM | –
5 | K(Cy5)DKPPR (KDKPPR with Cy5 on the side chain of the first lysine; source: synthetic peptide (solid phase with Fmoc-Lys(Cy5)-OH, purified by preparative HPLC)) [K(Cy5)DKPPR] | 5 µM | –
